{"source": "patent US8415106B2", "about": "“Cell-based screen for agents useful for reducing neuronal demyelination or promoting neuronal remyelination” (Myelin Repair Foundation, Inc., priority 2005, dated 2013)", "key": {"[1]": {"system": "oligodendrocytes and myelin in the corpus callosum", "experiment": "Cuprizone-induced demyelination/remyelination in GFAP/tTA; TRE/IFN-γ double transgenic mice", "format": "in vivo", "method": "The effects of IFN-γ on demyelination were evaluated in a cuprizone animal model using transgenic mice that allow for temporally regulated delivery of IFN-γ using the tetracycline controllable system (Lin, et al. (2004) J. Neurosci. 24: 10074-10083). The transgenic mice were generated by mating line 110 GFAP/tTA mice on the C57BL/6 background with line 184 TRE/IFN-γ on the C57BL/6 background to produce GFAP/tTA; TRE/IFN-γ double transgenic mice (Lin, et al. (2004) J. Neurosci. 24: 10074-10083). Transcriptional activation of the TRE/IFN-γ transgene by tTA was repressed in the control (DOX+) mice by adding 0.05 mg/ml doxycycline to the drinking water which was provided ad libitum from the day of conception. The DOX+ double transgenic mice were GFAP/tTA; TRE/IFN-γdouble transgenic animals fed cuprizone chow and never released from the doxycycline solution. DOX− double transgenic mice were GFAP/tTA; TRE/IFN-γdouble transgenic animals fed cuprizone chow and released from doxycycline to induce expression of IFN-γ.\nDemyelination was induced in 6-week-old DOX+ and DOX− male mice by feeding the mice a diet of milled mouse chow containing 0.2% cuprizone (Sigma-Aldrich, St. Louis, Mo.) for up to 6 weeks. Subsequently, both groups of mice were returned to a normal diet for up to 3 weeks to allow remyelination to occur. All animal procedures were conducted in complete compliance with the NIH Guide for the Care and Use of Laboratory Animals and were approved by the Institutional Animal Care and Use Committee of The University of Chicago.\nThe effect of INF-γ on the population of oligodendrocytes was evaluated by immunohistochemical analysis of oligodendrocytes using an anti-CC1 antibody (APC7, 1:50; EMD Biosciences, Inc., La Jolla, Calif.) Immunohistochemistry was performed on brain sections obtained from mice that were first anesthetized mice and perfused through the left cardiac ventricle with 4% paraformaldehyde in 0.1M PBS. The brains were removed, postfixed with paraformaldehyde, cryopreserved in 30% sucrose, embedded in OCT and frozen on dry ice. Frozen sections were cut in a cryostat at a thickness of 10 μm. […] Fluorescent stained sections were mounted with Vectashield mounting medium with DAPI (Vector Laboratories) and visualized with a Zeiss Axioplan fluorescence microscope. […] Immunopositive cells were quantified by counting positive cells within the median of the corpus callosum, confined to an area of 0.04 mm^2. Only those cells with nuclei observable by DAPI staining were counted. Each MBP immunostaining slide was scored on a scale of zero to four. […]"}, "[2]": {"system": "Stat1", "experiment": "Stat1 nuclear translocation assay in mixed primary oligodendrocyte cultures", "format": "cell-based, mice", "conditions": "100 U/mL IFN-γ for 30 min, one hundred PLP positive cells counted", "method": "Mixed primary oligodendrocyte cultures were prepared as previously described (Baerwald et al., 2000). Briefly, brain tissue was harvested from 2-3-day-old newborn pups of PLP/SOCS1 and C57B1/6J matings. Because the litters contained transgenic and wild-type pups, the brain of each animal was processed individually, cultured separately, and later genotype matched. Each brain was digested separately using 0.25% trypsin and 10 μg/ml of DNAaseI (Invitrogen) in Dulbecco's modified Eagle's medium (DMEM) for 20 min at 37° C., and cells were cultured on separate poly-D-lysine-coated […] flasks (Sigma-Aldrich). The cultures were maintained with 10% fetal bovine serum DMEM at 37° C. with 5% CO2 for 12 days, and then switched to a defined medium containing […] of insulin, 50 μg/ml of transferrin, 30 nM of selenium, 10 nM of biotin, 1 nM of progesterone, 15 nM of T3, 0.1% bovine serum albumin, and 1% […] (Sigma-Aldrich). […] One hundred PLP positive cells were manually counted in both wild-type and PLP/SOCS1 cultures. […]\nThe responsiveness of PLP/SOCS1 oligodendrocytes to IFN-γ was studied in primary mixed glial cultures. […] In contrast, Stat1 nuclear translocation was detected only in occasional PLP positive oligodendrocytes (6±2 cells) following IFN-γ stimulation (p<0.05)."}}}
{"molecule": "IFN-γ: pleotropic cytokine secreted by activated T lymphocytes and natural killer cells; recombinant rat IFN-γ added to cultures or transgenically expressed in mouse CNS (protein, UniProt P01581 23-156, looked up) Interferon gamma: QGTLIESLESLKNYFNSSSMDAMEGKSLLLDIWRNWQKDGNTKILESQIISFYLRLFEVLKDNQAISNNISVIESHLITNFFSNSKAKKDAFMSIAKFEVNNPQIQHKAVNELIRVIHQLSPESSLRKRKRSRC", "values": [{"measurement": "remyelinated axons", "setting": "[1]; DOX− mice (IFN-γ expressed), corpus callosum, week 8, control DOX+ 48.4%±4%", "value": "26.9%±7%"}, {"measurement": "CC1 positive oligodendrocytes within the corpus callosum", "setting": "[1]; DOX− mice, 8 weeks, control DOX+ 228.7±20.2", "value": "78±12.7 /0.04 mm2"}, {"measurement": "NG2 positive OPCs in the corpus callosum", "setting": "[1]; DOX− mice, week 4 of cuprizone treatment, DOX+ 19±2.12", "value": "46±4.24 /0.04 mm^2"}, {"measurement": "NG2 positive OPCs in the corpus callosum", "setting": "[1]; DOX− mice, week 6, DOX+ 80±2.8", "value": "31.5±0.71 /0.04 mm^2"}, {"measurement": "PLP positive oligodendrocytes with Stat1 nuclear translocation", "setting": "[2]; PLP/SOCS1 cultures", "value": "6±2", "unit": "cells"}, {"measurement": "PLP positive oligodendrocytes with Stat1 nuclear translocation", "setting": "[2]; wild-type cultures", "value": "96±3", "unit": "cells"}]}
